Data as given in US20150315270A1 (CONSEJO NACIONAL DE INVESTIGATION CIENTIFICA, published 2015).
One block for each binder: values may come before it.

What was measured:
human VEGF-B186 = target: T1, human VEGF-B186 (human, UniProt P49765 22-207); test: SPR, Biacore T100, antibody (6.30-0.18 uM) injected over immobilized VEGF-B186 (4000 RU), 1:1 model
T1 construct: also called Vascular endothelial growth factor antigen B
T1 sequence: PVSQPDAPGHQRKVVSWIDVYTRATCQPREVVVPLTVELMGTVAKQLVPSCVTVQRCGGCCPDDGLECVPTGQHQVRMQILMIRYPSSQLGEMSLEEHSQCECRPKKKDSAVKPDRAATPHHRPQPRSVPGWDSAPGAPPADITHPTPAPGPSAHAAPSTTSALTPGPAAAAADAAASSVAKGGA
Method: KA and KD respectively, were determined by kinetic analysis fitting a 1:1 interaction model using biacore T100 Evaluation software.

human VEGF-A165 [1] = target: T2, human VEGF-A165 (human, UniProt P15692 207-395); test: cell-based or functional assay
mouse VEGF-A = target: T3, mouse VEGF-A (mouse, UniProt Q00731-2 27-190, limits assumed); test: ELISA and SPR
T3 sequence (looked up): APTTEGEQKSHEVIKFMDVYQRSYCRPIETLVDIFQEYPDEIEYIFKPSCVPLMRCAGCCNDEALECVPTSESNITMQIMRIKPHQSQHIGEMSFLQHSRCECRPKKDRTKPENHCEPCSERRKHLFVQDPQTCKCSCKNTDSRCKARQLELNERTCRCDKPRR

human VEGF-A165 [2] = target: T2, human VEGF-A165; test: SPR, Biacore T100, kinetic analysis, 1:1 model
human VEGF-A165 [3] = target: T2, human VEGF-A165; test: SPR, BIAcore T100, kinetic analysis, 1:1 model
Method: Affinity and Dissociation Constants, KA and KD, respectively, were determined by kinetic analysis fitting a 1:1 interaction model using the BIAcore T100 evaluation software.

koff (human VEGF-B186): 0.00571 s⁻¹
kon (human VEGF-B186): 32800 M⁻¹ s⁻¹
IC50, HUVEC proliferation assay (human VEGF-A165 [1]): ~0.011 µg/mL
IC50 in the HUVEC proliferation assay against that of bevacizumab (human VEGF-A165 [1]): 5 fold lower
binding result (mouse VEGF-A): no binding
Kd (human VEGF-A165 [2]): 0.0053 nM
koff (human VEGF-A165 [2]): 9.9e-05 s⁻¹
kon (human VEGF-A165 [2]): 1.87e+07 M⁻¹ s⁻¹
B1: mMcA-AB1-anti-VEGF-A (mouse monoclonal antibody A-AB1-anti-VEGF-A) (antibody, V domains shown)
VH: QVKLLESGPELKKPGETVKISCKASGYTFTNFGMNWVKQAPGKGLKWMGWINTNTGEPTYVDDFKGRFAFSLETSASSAYLQISNLNNEDTATYFCARYYGSTSVWYFDVWGAGTTVTVSS
VL: ELVMTQTPSSLSASLGDRVTITCRASQDIFNYLNWYQQKPDGPIKLLIYYSSRLHSGVPSRFSGSGSGTDYSLTISNLDREDIATYFCQQGFTLPWTFGGGTKLEIKR
notes: also called mMc-AB1-anti-VEGF-A; mouse AB1 antibody

IC50, HUVEC proliferation assay (human VEGF-A165 [1]): ~0.019 µg/mL
IC50 in the HUVEC proliferation assay against that of bevacizumab (human VEGF-A165 [1]): 3 fold lower
binding result (mouse VEGF-A): no binding
Ka (human VEGF-A165 [3]): 9.24e+09 M⁻¹
Kd (human VEGF-A165 [3]): 0.109 nM
koff (human VEGF-A165 [3]): 0.000421 s⁻¹
kon (human VEGF-A165 [3]): 3.83e+06 M⁻¹ s⁻¹
B2: hMcA-AB1-anti-VEGF-A (humanized monoclonal antibody A-AB1-anti-VEGF-A) (antibody, human IgG1, V domains shown)
VH: QVQLVQSGSELKKPGASVKVSCKASGYTFTNFGMNWVRQAPGQGLEWMGWINTNTGEPTYVDDFKGRFVFSLDTSVSTAYLQISSLKAEDTAVYYCARYYGSTSVWYFDVWGRGTLVTVSS
VL: DIQMTQSPSSLSASVGDRVTITCRASQDIFNYLNWYQQKPGKAPKLLIYYSSRLHSGVPSRFSGSGSGTDFTFTISSLQPEDIATYYCQQGFTLPWTFGQGTKVEIKR
notes: The constant regions come from the vectors pFUSE-CHIg-hG1 (human IgG1 heavy) and pFUSE2-CLIg-hk (human kappa light); also called hMcA-AB1-VEGF-A; humanized mMc-AB1-anti-VEGF-A
